Here are results for two molecules from patent US20250313644A1 (FUTUREGEN BIOPHARMACEUTICAL BEIJING, published 2025).

For assay [1], the target named is T1, LIGHT (UniProt O43557 74-240, limits assumed). Nature of the assay: ELISA, coated LIGHT, Ab 25 nM. On the procedure:
(§1) In this experiment, ELISA was used to assess the binding ability of monoclonal antibodies to TL1A homologous molecules. Representative members of the TNF ligand superfamily, TNFα, LT-α, LIGHT and FASL, were selected for binding testing. 1 μg/mL of TNFα, LT-α, LIGHT or FASL was coated in a microplate with a carbonate buffer solution at pH=9.6, 100 μL per well, and the microplate was incubated at 4° C. overnight. The microplate was then washed 5 times with PBST, blocked with 300 μL/well of PBS containing 1% BSA, and was incubated at room temperature for 1 hour. After washing 5 times with PBST, about 100 μL each of the M701 monoclonal antibodies and the control antibodies were added to each well, and were incubated at room temperature for 1 hour. After washing 5 times with PBST, 100 μL of HRP-anti-human Fc (Sino Biological) was added to each well, and was incubated at room temperature for 1 hour. After washing 5 times with PBST, 100 μL of colorimetric substrate TMB was added to each well, and color was developed at room temperature for 10 minutes, followed by addition of 1M sulfuric acid to terminate the reaction. OD450 nm was recorded on a microplate reader.
Background: An ELISA detects its analyte on a solid surface through an enzyme-linked reagent.

Assay [2] addresses T2, LT-α (UniProt P01374 35-205).
T2 sequence (looked up): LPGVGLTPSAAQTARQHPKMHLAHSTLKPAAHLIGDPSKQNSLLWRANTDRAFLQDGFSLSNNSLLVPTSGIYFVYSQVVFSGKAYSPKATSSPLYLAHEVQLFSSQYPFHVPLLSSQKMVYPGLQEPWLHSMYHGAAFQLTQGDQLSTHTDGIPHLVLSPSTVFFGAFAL
The experiment in a line: ELISA, coated LT-α. As to the method:
as §1

The target of assay [3] is T1, LIGHT. The experiment in a line: ELISA, coated LIGHT, Ab 1.563 nM. As to the method:
as §1

Assay [4] concerns the target T1, LIGHT. The experiment in a line: ELISA, coated LIGHT, Ab 0.000 nM (blank). On the procedure: as §1
The target of assay [5] is T3, FASL (UniProt P48023 134-281, limits assumed).
T3 sequence (looked up): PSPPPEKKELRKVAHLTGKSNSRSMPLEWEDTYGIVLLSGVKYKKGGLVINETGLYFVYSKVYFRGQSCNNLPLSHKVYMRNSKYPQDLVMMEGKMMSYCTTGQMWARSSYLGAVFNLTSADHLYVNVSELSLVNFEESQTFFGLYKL
The experiment in a line: ELISA, coated FASL, Ab 100 nM. As to the method:
as §1

Assay [6] has as its target T4, TNFα (UniProt P01375 77-233). Nature of the assay: ELISA, coated TNF-α, Ab 0.391 nM. On the procedure: as §1
The target in assay [7] is T5, human TL1A (HuTL1A) (human, UniProt O95150 57-251, limits assumed, biotin-labelled in some assays (site not stated)).
T5 construct: Expressed in EXPI-293 cells and purified by Ni-NTA (His-tag); Described as a trimeric antigen; also called TL1A antigen; WT
T5 sequence: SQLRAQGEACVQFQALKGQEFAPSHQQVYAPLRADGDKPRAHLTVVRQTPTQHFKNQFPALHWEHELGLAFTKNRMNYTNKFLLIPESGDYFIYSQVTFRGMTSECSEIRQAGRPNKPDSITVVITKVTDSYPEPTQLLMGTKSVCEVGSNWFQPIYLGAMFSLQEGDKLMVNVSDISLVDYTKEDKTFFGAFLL
The experiment in a line: DLS, antigen and antibody mixed in equal moles. On the procedure: 60 μM antigen and antibody was mixed in equal moles, incubated at room temperature for 30 minutes, and then the molecular size was detected using UNCLE or SEC.

In assay [8] the target is T3, FASL. The experiment in a line: ELISA, coated FASL, Ab 25 nM. On the procedure:
as §1

The target of assay [9] is T3, FASL. Nature of the assay: ELISA, coated FASL. As to the method: as §1
Assay [10] deals with T6, HuTL1A mutant G124R (mutant number 4059) (human, UniProt O95150 57-251, limits assumed).
T6 construct: whole entry named
T6 chain: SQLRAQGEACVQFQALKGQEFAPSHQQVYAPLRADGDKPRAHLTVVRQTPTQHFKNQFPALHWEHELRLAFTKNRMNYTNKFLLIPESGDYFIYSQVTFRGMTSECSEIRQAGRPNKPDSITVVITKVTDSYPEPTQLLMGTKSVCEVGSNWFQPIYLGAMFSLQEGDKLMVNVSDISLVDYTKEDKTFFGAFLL
Nature of the assay: ELISA on antigen mutant.

Assay [11] concerns the target T7, HuTL1A mutant R103A (mutant number 4057) (human, UniProt O95150 57-251, limits assumed).
T7 construct: whole entry named
T7 chain: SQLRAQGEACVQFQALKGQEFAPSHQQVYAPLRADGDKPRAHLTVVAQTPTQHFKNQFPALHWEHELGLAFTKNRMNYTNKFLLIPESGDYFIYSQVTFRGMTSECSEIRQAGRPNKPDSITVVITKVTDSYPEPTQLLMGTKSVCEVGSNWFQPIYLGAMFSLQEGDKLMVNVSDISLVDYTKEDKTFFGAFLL
The experiment in a line: ELISA on antigen mutant.

The target of assay [12] is T4, TNFα. The experiment in a line: ELISA, coated TNFα. On the procedure:
as §1

Assay [13] concerns the target T4, TNFα. Nature of the assay: ELISA, coated TNF-α, Ab 6.25 nM. On the procedure:
as §1

Assay [14] deals with T2, LT-α. The experiment in a line: ELISA, coated LT-α, Ab 100 nM. As to the method: as §1
In assay [15] the target is T2, LT-α. Nature of the assay: ELISA, coated LT-α, Ab 0.000 nM (blank). On the procedure: as §1
Assay [16] concerns the target T5, human TL1A (HuTL1A). The experiment in a line: cell-based or functional assay.
The target of assay [17] is T1, LIGHT. Nature of the assay: ELISA, coated LIGHT, Ab 0.391 nM. As to the method: as §1
For assay [18], the target named is T4, TNFα. Nature of the assay: ELISA, coated TNF-α, Ab 0.000 nM (blank). As to the method:
as §1

For assay [19], the target named is T2, LT-α. Nature of the assay: ELISA, coated LT-α, Ab 25 nM. As to the method: as §1

T1 sequence (O43557 74-240 limits assumed): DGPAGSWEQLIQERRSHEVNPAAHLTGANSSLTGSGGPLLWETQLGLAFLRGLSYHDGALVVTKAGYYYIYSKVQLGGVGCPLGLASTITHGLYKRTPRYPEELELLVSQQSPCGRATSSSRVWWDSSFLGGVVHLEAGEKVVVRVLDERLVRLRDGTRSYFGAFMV
T4 sequence (P01375 77-233 limits assumed): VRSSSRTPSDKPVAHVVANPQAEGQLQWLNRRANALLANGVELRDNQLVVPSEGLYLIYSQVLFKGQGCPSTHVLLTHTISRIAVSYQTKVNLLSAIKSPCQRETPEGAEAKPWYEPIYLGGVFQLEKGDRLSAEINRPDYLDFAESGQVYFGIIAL

B1: M701-3966 (antibody, human IgG1, kappa, L234A L235A, V domains shown)
VH: ELQLQESGPGLVKPSETLSLTCAVSGVSFSDYHWAWIRQPPGKGLEWIGDINHRGHTNYNPSLKSRVTVSIDTSKNQFSLKLSSVTAADTAVYFCARDFPNFIFDYWGQGTLVTVSS
VL: DIQLTQSPGTLSLSPGERATLSCRASQSVSSYLAWYQQKPGQAPRLLIYGASKRATGIPDRFSGSGSGTDFTLTISRLEPEDFAVYYCQQYGDSPLTFGQGTKVEIKR
notes: Fc-engineered IgG1
On to B1, for which the OD450 nm with LIGHT [1] was determined as 0.0674; with LIGHT [3], 0.0573; in the assay with LIGHT [4], 0.06; in the assay with FASL [5], 0.0914; with TNFα [6], 0.0517; with FASL [8] it was 0.0662. Besides, the OD450 nm in the assay with TNFα [13] was 0.0511; with LT-α [14], 0.0709; with LT-α [15] it was 0.0704; with LIGHT [17], 0.0558; with TNFα [18] it was 0.0706; with LT-α [19], 0.0639. Besides, the binding result with LT-α [2] is reported as “no binding (tested: 100 nM)”; in the assay with FASL [9], “no binding (tested: 100 nM)”; in assay [10], “no binding”; in assay [11] it was “no binding”; in the assay with TNFα [12], “no binding (tested: 100 nM)”. Besides, the “Ave Z-dia (nm) of the antigen-antibody complex” value in the assay with human TL1A (HuTL1A) [7] was 18.6 nm. In addition, the “IC50 (read off the curve); IFN-γ of human T cells with IL-12, IL-18 and exogenous human TL1A” value in the assay with human TL1A (HuTL1A) [16] is about 0.3 nM.

B2: M701-4007 (antibody, human IgG1, kappa, L234A L235A, V domains shown)
VH: ELQLQESGPGLVKPSETLSLTCAVSGVSFSDYHWAWIRQPPGKGLEWIGDINHRGHTNYNPSLKSRVTVSIDTSKNQFSLKLSSVTAADTAVYFCARDFPNFIFDFWGQGTLVTVSS
VL: DIQLTQSPGTLSLSPGERATLSCRASQSVSTYLAWYQQKPGQAPRLLIYGASKRATGIPDRFSGSGSGTDFTLTISRLEPEDFAVYYCQQYGDSPLTFGQGTKVEIKR
notes: Fc-engineered IgG1
For the molecule B2, the OD450 nm with LIGHT [1] is 0.063; in the assay with LIGHT [3], 0.0568; in the assay with LIGHT [4], 0.0568; with FASL [5], 0.089; with TNFα [6] it was 0.0557; in the assay with FASL [8], 0.0634. Moreover, the OD450 nm came to 0.0553 in the assay with TNFα [13]; 0.0706 in the assay with LT-α [14]; 0.0662 with LT-α [15]; 0.0534 with LIGHT [17]; 0.0762 with TNFα [18]; 0.0628 with LT-α [19]. Also, the binding result with LT-α [2] is recorded as “no binding (tested: 100 nM)”; with FASL [9], “no binding (tested: 100 nM)”; in assay [10], “no binding”; in assay [11], “no binding”; in the assay with TNFα [12], “no binding (tested: 100 nM)”. For the same molecule, the “Ave Z-dia (nm) of the antigen-antibody complex” value with human TL1A (HuTL1A) [7] stood at 18.7 nm. Besides, in the assay with human TL1A (HuTL1A) [16], the “IC50 (read off the curve); IFN-γ of human T cells with IL-12, IL-18 and exogenous human TL1A” value was about 0.2 nM.
